No end group written: not given here.
T1: biotinylated cyclic ECL2 peptide of C5aR1 (human, also: biotinylated, position not given here, cyclic, way of cyclisation not given here)
T1 peptide: RVVREEYFPPKVLC

T2: biotinylated N-terminal peptide of C5aR1 without tyrosine sulfation (human, biotinylated)
T2 construct: also called Non-sulfated N-terminal
T2 peptide: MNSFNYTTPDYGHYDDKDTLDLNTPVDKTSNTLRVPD

T3: biotinylated N-terminal peptide of C5aR1 with tyrosine sulfation (human, tyrosine sulfation (the sulfated tyrosines of C5aR1 are Y11 and Y14); biotinylated)
T3 construct: also called Sulfated N-terminal
T3 peptide: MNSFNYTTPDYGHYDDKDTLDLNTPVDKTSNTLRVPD


Key:
Experiment in all cases: BLI, peptide on streptavidin sensor
[1] = biological target: T1, biotinylated cyclic ECL2 peptide of …
Text: (§1) The epitope mapping was undertaken, using biolayer interferometry, on a series of exemplary anti-C5aR1 antibodies generated as described in Example 1. Briefly, for each antibody, biotinylated peptides representing ECL2, the N-terminus with tyrosine sulfation, and the N-terminus without tyrosine sulfation, were immobilized in a streptavidin biosensor. Subsequently, the biosensor was exposed to […] of antibody to detect antibody binding to the immobilized peptide. The results of the epitope mapping study are shown in Table 4 (“+” indicates binding to the listed peptide; “−” indicates lack of binding to the listed peptide).

[2] = biological target: T2, biotinylated N-terminal peptide of …
Text: as §1

[3] = biological target: T3, biotinylated N-terminal peptide of …
Text: as §1

Binder	binding result [1]	binding result [2]	binding result [3]
Clone_66 (antibody, V domains shown, also called Ab66; mab 66) VH: QVQLQQSDAELVKPGASVKISCKASGYTFIDHAIHWVKQRPEQGLEWIGYISPGNGEIKYNEKFKAKATLTADKSSSAAYMQLNSLTSADSAVYFCKRALFYYTGKYQPMDYWGQGTTVTDSS VL: DIVMTQSQKFMSTTAGDRVSITCKASQNVGSAVVWYQQKPGRSPKLLIYSSSIRYTGVPDRFTGSGSGTDFTLTINSVQSEDLADYFCQQYNSFPLTFGAGTKLEIK	no binding (tested: 10 gg/mL (so in the source))	–	–
Clone_79 (antibody, V domains shown, also called antibody 79) VH: QVQLKESGPGLVAPSQSLSITCTVSGFSLTSYAISWVRQPPGKGLEWLGVIWTGGGTKYNSALKSRLSISKDNSKSHVFLKMNSLQSDDTARYYCARDGDYVYYAMAYWGQGTTVTVSS VL: DVVMTQTPLSLPVSLGDQASISCRSSQSLVHSNGNTYLHWYLQKPGQSPKLLIYKVSNRFSGVPDRFSGSGSGTDFKLKISRVEAEDLGVYFCSQSTHVPPTFGGGTKLEIK	–	no binding (tested: 10 gg/mL (so in the source))	no binding (tested: 10 gg/mL (so in the source))
Clone_184 (antibody, V domains shown) VH: QVQLQQSGAELVKPGASVKISCKASGYAFSRYWMNWVKQRPGKGLEWIGQIYPGDGDTKYNGKFKGKATLTADKSSSTAYMQLNSLTSEDSAVYFCTRSLGVWGTGTTVTVSS VL: not shown	no binding (tested: 10 gg/mL (so in the source))	–	–
antibody 317 (antibody, V domains shown) VH: QVQLQQPGAELVMPGASVKLSCKASGYTFTSYWLHWVRQRPGQGLEWIGEIDPSDGYSNHNQKFKGKATLTVDKSSSTAYMQLSSLTSEDSAVYYCATEGFWGQGTTVTVSS VL: DIVMTQSPSSLSVSAGEKVTMSCKSSQSLLKSGNQKNYLAWHQQKPGQPPKLLIYGASTRESGVPDRFTGSGSGTDFTLTISSVQAEDLAVYYCQNDHSHPYTFGGGTKLEIK	–	no binding (tested: 10 gg/mL (so in the source))	no binding (tested: 10 gg/mL (so in the source))
Clone_329 (antibody, V domains shown, also called Ab329; mAb329) VH: QVQLQQSGAELTKPGASVKLSCKASGYTFTNYWMHWVKQRPGQGLEWIGYLNPSSGYTKYNQKFKDKATLTADKSSSTAYMQLNSLTYEDSAVYYCTRSGGDNYGNPYYFDRWGQGTTVTVSS VL: DVVMTQTPLSLTVSLGDQASISCRSSQSLVHSNGNTYLHWYLQKPGQSPKFLIYKVSNRFSGVPDRFSGSGSGTDFRLKISRVEAEDLGVYFCSQSTLVPLTFGAGTKLEIK	–	no binding (tested: 10 gg/mL (so in the source))	no binding (tested: 10 gg/mL (so in the source))
Clone_336_V2-1 (antibody, V domains shown) VH: QVQLKQSGPGLVQSSQSLSITCTVSGFSLISYGVHWVRQSPGKGLEWLGVIWSGGSTDYNAAFKSRLSITKDNSKSQVFFKMNSLQADDTAIYYCAKNSQLGNAMDYWGQGTTVTVSS VL: DIVMSQSPSSLAVSAGEKVTMSCKSSQSLLSSRTRKNYLAWYQQKPGQSPKLLIYWASTRESGVPDRFTGSGSGTDFTLTISSVQAEDLALYFCNQSYDLLTFGAGTKLEIK	–	no binding (tested: 10 gg/mL (so in the source))	no binding (tested: 10 gg/mL (so in the source))
antibody 343 (antibody, V domains shown) VH: QVQLQQSGAELVKPGASVKLSCKASGYTFTEYTIHWVNQRSGQGLEWIGWFYPGSGSIKYNEKFKDKATLTADKSSHTVYMELSRLTSEDSAVYFCARHGNYYDGSWFAYWGQGTLVTVSA VL: DVQITQSPSYLAASPGETITINCRASKSISKYLAWYQEKPGKTNKLLIYSGSTLQSGIPSRFSGSGSGTDFTLTISSLEPEDFAMYYCQQHDEYPWTFGGGTKLEIK	–	no binding (tested: 10 gg/mL (so in the source))	no binding (tested: 10 gg/mL (so in the source))
Clone_402 (antibody, V domains shown) VH: QIQLVQSGPELKKPGETVKISCKASGYTFTTFGMSWVKQAPGKGLKWMGWINTNSGMPTYTDDFRGRFAFSLETSASTAYLQISSLKNEDTATYFCARKSLFYWGQGTTLTVSS VL: DVVMTQSPLTLSVTIGQPASISCRSSRSLLDSDGKTKLHWLLQRPGQSPKSLIYLVSKLDSGVPNRFTGGGSGTDFTLKINRVEAEDLGVYYCWQGTHFPWTFGVGTKLEIK	no binding (tested: 10 gg/mL (so in the source))	–	–
Clone_429 (antibody, V domains shown) VH: QVQLQQSGAELAKPGASVKLSCKASGYTFSSYWIHWVKQRPGQGLEWIGYINPRGDYTKYNQKFKDKATLTADKSSSTAFMQLSSLTYEDSAVYYCVRVTGSEGPYYFDYWGQGTTLTVSS VL: DVVMTQTPLSLPVSLGDQASISCRSSQSLVHSNGNTYLQWYLQKPGQSPKLLIYKVSNRFSGVPDRFSGSGSGTEFTLKIRRVEAEDLGVFLCSQSTLVPLTFGAGTKLELK	–	no binding (tested: 10 gg/mL (so in the source))	no binding (tested: 10 gg/mL (so in the source))
Clone_453 (antibody, V domains shown) VH: QVQLKQSGPGQVAPSQSLSITCTVSGFSLINSAVHWVRQSPGKGLEWLGVIWSDGSTDYNTAFISRLSISRDNSKSQVFFKMRSLQVDDTAVYYCARNGRLGNAMDYWGQGTSVTVSS VL: DIVMTQSPSSLAVSVGEKVTMSCKSSQSLFSSRTRKNYLAWYQQKPGQSPKLLIYWASTRESGVPYRFTGSGSGTDFTLTISSVQTEDLAVYYCKQSYNLLTFGAGTKLEL	–	no binding (tested: 10 gg/mL (so in the source))	no binding (tested: 10 gg/mL (so in the source))
Clone_511 (antibody, V domains shown) VH: QVQLQQSGAELAKPGASVKLSCKTSGYTFTNYWMHWIKQRPGLGLEWIGYINPSGDYTKHNQKFKDKATLTADRSSSTAYMQLSSLTYEDSAVYYCARVPLSYGSGNGPYYFDYWGQGTTLTVSS VL: DVVMTQTPLSLPVSLGDHASISCRSSQSLVHSNGNIYLHWYLQRPGQSPKLLIHKVSNRFSGVPDRFSGSGSGTDFTLKISRVEAEDVGIYFCSQSTLVPLTFGSGTKLELK	–	no binding (tested: 10 gg/mL (so in the source))	no binding (tested: 10 gg/mL (so in the source))
Clone_518 (antibody, V domains shown) VH: QVQLQQSGAELAKPGASVKLSCKTSGYTFTNYWMHWIKQRPGLGLEWIGYINPSGDYTKHNQKFKDKATLTADRSSSTAYMQLSSLTYEDSAVYYCARVPLSYGSGNGPYYFDYWGQGTTLTVSS VL: DVVMTQTPLSLPVSLGDHASISCRSSQSLVHSNGNTYLHWYLQRPGQSPKLLIHKVSNRFSGVPDRFSGSGSGTDFTLKISRVEAEDVGIYFCSQSTLVPLTFGSGTKLELK	–	no binding (tested: 10 gg/mL (so in the source))	no binding (tested: 10 gg/mL (so in the source))
Clone_583 (antibody, V domains shown, also called Ab583; mAb583) VH: EVQLVESGGGLVKPGGSLKLSCAASGFTFNAYAMSWVRQTPEKRLEWVASISTGGNTYCPDSVKDRFTVSRDNVRNILYLQMSSLRSEDTAMYYCTRGYQRFSGFAYWGQGTLVTVS VL: DVVMTQTPLSPPVSLGYQASISCRSSQSLVHSNGNTYLNWYLQKPGQSPKLLIYKVSNRLSGVPDRFSGSGSGTDFTLKISRVETEDLGVYFCSQSTHVPYTFGGGTKLEIK	no binding (tested: 10 gg/mL (so in the source))	–	–
Clone_584 (antibody, V domains shown) VH: DVQLQESGPDLVKPSQSLSLTCTVTGYSITSGYSWHWIRQSPGNKLEWLAYIHNSGSTNYNPSLKSRISITRDTSKNQFFLKLNSVTTEDTATYYCARSIGDYWGQGTTLAVSS VL: DVVMTQTPLSLPVSLGDRASISCRSGQSLVHSNGNTYLHWYLQRPGRSPNLLIYKVSNRFSGVPDRFSGSGSGTDFTLKISRVEAEDLGVYFCSQSTHVPWTFGGGTKLEIK	–	no binding (tested: 10 gg/mL (so in the source))	no binding (tested: 10 gg/mL (so in the source))
Clone_588 (antibody, V domains shown) VH: DVQLQESGPGLVKPSQSLSLTCTVTGYSITSDYAWNWIRQFPGNKLEWMGYISYSGSIRYNPSLKSRISITRDTSKNQFFLQLNSVTTEDTATYYCAITTGGYFDYWGQGTTLTVSS VL: DIQMTQSTSSLSASLGDRVTISCRASQDISNYLNWYQQTPDGTVKLLIYQISRLHSGVPSRFSGSGSGTDYSLTISNLEEEDIANYFCQQGNSLPPTFGGGTKVEIK	–	no binding (tested: 10 gg/mL (so in the source))	no binding (tested: 10 gg/mL (so in the source))
Clone_11_V2 (antibody, V domains shown, also called Ab11v2) VH: QVQLQQSGPELVKPGASVKISCKASGYSFSSSWMNWVKQRPGKGLEWIGRISPGDGDTRYSGKFKGKATLTADKSSSTAYMQVTSLTSEDSAIYFCVRFLITSTRYVMDYWGQGTTVTVSS VL: DVVMTQTPLSLPVSLGDQASISCRSSQSLVHSNGNTYLHWYLQKPGQSPKLLIYKVSNRFSGVPDRFSGSGSGTDFTLKISRVEAEDLGVYFCSQSTLVPPTFGGGTKLEIK	–	no binding (tested: 10 gg/mL (so in the source))	no binding (tested: 10 gg/mL (so in the source))
